Data from the supplement of paper PMC9112550, “Optimization of the antimicrobial peptide Bac7 by deep mutational scanning” (BMC Biology, 2022).

test system: Escherichia coli TOP10; assay: shrunken log2 fold change of peptide-encoding DNA abundance (4.5 h post-induction vs induction); higher = less antimicrobial activity (less host growth inhibition); conditions: time post-induction: 4.5 h; library: site-saturation at positions 5, 18, 19, 20
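Further: peptides expressed intracellularly from a pBAD plasmid library in pooled LB shake-flask culture, induced with 0.3% L-arabinose, DNA abundance read by NGS, three biological replicates, DESeq2 with apeglm shrinkage.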

Row | Sequence | shrunken log2 fold change
1 | RRIRWRPPRLPRPRPRPWPPPRP | 0.546
2 | RRIRNRPPRLPRPRPRPYLWPRP | -0.23
3 | RRIRFRPPRLPRPRPRPSMGPRP | -0.648
4 | RRIRGRPPRLPRPRPRPFIFPRP | 0.516
5 | RRIRWRPPRLPRPRPRPWRTPRP | 0.0595
6 | RRIRQRPPRLPRPRPRPLINPRP | -0.305
7 | RRIRPRPPRLPRPRPRPTNTPRP | -0.375
8 | RRIRQRPPRLPRPRPRPFLNPRP | -0.118
9 | RRIRVRPPRLPRPRPRPHGKPRP | -0.389
10 | RRIRCRPPRLPRPRPRPGRAPRP | 0.453
11 | RRIRERPPRLPRPRPRPMWPPRP | 0.186
12 | RRIRSRPPRLPRPRPRPTSFPRP | -0.189
13 | RRIRKRPPRLPRPRPRPDVAPRP | 0.0256
14 | RRIRDRPPRLPRPRPRPVQFPRP | -0.0196
15 | RRIRVRPPRLPRPRPRPYEIPRP | -0.14
16 | RRIRWRPPRLPRPRPRPDFHPRP | -0.239
17 | RRIRGRPPRLPRPRPRPHFTPRP | 0.233
18 | RRIRTRPPRLPRPRPRPFWDPRP | 0.126
19 | RRIRVRPPRLPRPRPRPRPMPRP | 0.445
20 | RRIRMRPPRLPRPRPRPSMYPRP | 0.081
21 | RRIRGRPPRLPRPRPRPEWHPRP | 0.386
22 | RRIRIRPPRLPRPRPRPRWEPRP | 0.0225
23 | RRIRRRPPRLPRPRPRPVNNPRP | -0.12
24 | RRIRKRPPRLPRPRPRPATRPRP | 0.423
25 | RRIRFRPPRLPRPRPRPKWGPRP | 0.129

Row | Sequence | shrunken log2 fold change
26 | RRIRKRPPRLPRPRPRPDMLPRP | -0.0389
27 | RRIRGRPPRLPRPRPRPMAVPRP | 0.773
28 | RRIRWRPPRLPRPRPRPVTEPRP | 0.361
29 | RRIRYRPPRLPRPRPRPHADPRP | -0.0359
30 | RRIRLRPPRLPRPRPRPKVAPRP | -0.0483
31 | RRIRGRPPRLPRPRPRPYFLPRP | -0.345
32 | RRIRWRPPRLPRPRPRPQYTPRP | -0.384
33 | RRIRCRPPRLPRPRPRPHQVPRP | -0.288
34 | RRIRSRPPRLPRPRPRPIAMPRP | -0.127
35 | RRIRSRPPRLPRPRPRPFKIPRP | -0.466
36 | RRIRCRPPRLPRPRPRPRFEPRP | 0.115
37 | RRIRDRPPRLPRPRPRPDWIPRP | 0.189
38 | RRIRPRPPRLPRPRPRPPEDPRP | 0.695
39 | RRIRDRPPRLPRPRPRPWTNPRP | -0.111
40 | RRIRERPPRLPRPRPRPDPAPRP | 2.64
41 | RRIRMRPPRLPRPRPRPDIFPRP | 0.118
42 | RRIRCRPPRLPRPRPRPLLTPRP | 0.00188
43 | RRIRARPPRLPRPRPRPKCPPRP | -0.0505
44 | RRIRFRPPRLPRPRPRPFSTPRP | -0.0736
45 | RRIRCRPPRLPRPRPRPVDTPRP | -0.0338
46 | RRIRFRPPRLPRPRPRPYHVPRP | 0.0272
47 | RRIRVRPPRLPRPRPRPHSCPRP | -0.0621
48 | RRIRERPPRLPRPRPRPEAAPRP | 0.575
49 | RRIRPRPPRLPRPRPRPNSCPRP | -0.241
50 | RRIRWRPPRLPRPRPRPPGYPRP | 0.684

Row | Sequence | shrunken log2 fold change
51 | RRIRSRPPRLPRPRPRPIHNPRP | -0.415
52 | RRIRWRPPRLPRPRPRPCTFPRP | -0.72
53 | RRIRTRPPRLPRPRPRPVQNPRP | 0.138
54 | RRIRMRPPRLPRPRPRPKFDPRP | 0.217
55 | RRIRFRPPRLPRPRPRPLQQPRP | -0.0115
56 | RRIRGRPPRLPRPRPRPIIFPRP | 0.437
57 | RRIRVRPPRLPRPRPRPTSGPRP | 0.0674
58 | RRIRQRPPRLPRPRPRPAYDPRP | -0.0146
59 | RRIRGRPPRLPRPRPRPLEKPRP | 0.725
60 | RRIRTRPPRLPRPRPRPPQSPRP | 0.441
61 | RRIRYRPPRLPRPRPRPHTEPRP | -0.0196
62 | RRIRSRPPRLPRPRPRPVFPPRP | -0.118
63 | RRIRCRPPRLPRPRPRPECPPRP | 0.293
64 | RRIRQRPPRLPRPRPRPDYPPRP | 0.00454
65 | RRIRQRPPRLPRPRPRPYLDPRP | -0.286
66 | RRIRNRPPRLPRPRPRPKEMPRP | -0.0529
67 | RRIRSRPPRLPRPRPRPHKDPRP | -0.534
68 | RRIRRRPPRLPRPRPRPSDWPRP | -0.302
69 | RRIRNRPPRLPRPRPRPMDQPRP | -0.01
70 | RRIRCRPPRLPRPRPRPFMAPRP | -0.15
71 | RRIRDRPPRLPRPRPRPCGYPRP | 0.0572
72 | RRIRFRPPRLPRPRPRPQMKPRP | -0.41
73 | RRIRRRPPRLPRPRPRPVPNPRP | 0.353
74 | RRIRSRPPRLPRPRPRPHMIPRP | -0.961
75 | RRIRYRPPRLPRPRPRPQMDPRP | -0.801
